Results from paper PMC2777448 (Nucleic Acids Research, 2009).

Assays:
Experiment in all cases: pull-down
[1] = molecular target: T1, (His)9-tagged full length Srs2 (S. cerevisiae, UniProt P12954 1-1174)
T1 sequence: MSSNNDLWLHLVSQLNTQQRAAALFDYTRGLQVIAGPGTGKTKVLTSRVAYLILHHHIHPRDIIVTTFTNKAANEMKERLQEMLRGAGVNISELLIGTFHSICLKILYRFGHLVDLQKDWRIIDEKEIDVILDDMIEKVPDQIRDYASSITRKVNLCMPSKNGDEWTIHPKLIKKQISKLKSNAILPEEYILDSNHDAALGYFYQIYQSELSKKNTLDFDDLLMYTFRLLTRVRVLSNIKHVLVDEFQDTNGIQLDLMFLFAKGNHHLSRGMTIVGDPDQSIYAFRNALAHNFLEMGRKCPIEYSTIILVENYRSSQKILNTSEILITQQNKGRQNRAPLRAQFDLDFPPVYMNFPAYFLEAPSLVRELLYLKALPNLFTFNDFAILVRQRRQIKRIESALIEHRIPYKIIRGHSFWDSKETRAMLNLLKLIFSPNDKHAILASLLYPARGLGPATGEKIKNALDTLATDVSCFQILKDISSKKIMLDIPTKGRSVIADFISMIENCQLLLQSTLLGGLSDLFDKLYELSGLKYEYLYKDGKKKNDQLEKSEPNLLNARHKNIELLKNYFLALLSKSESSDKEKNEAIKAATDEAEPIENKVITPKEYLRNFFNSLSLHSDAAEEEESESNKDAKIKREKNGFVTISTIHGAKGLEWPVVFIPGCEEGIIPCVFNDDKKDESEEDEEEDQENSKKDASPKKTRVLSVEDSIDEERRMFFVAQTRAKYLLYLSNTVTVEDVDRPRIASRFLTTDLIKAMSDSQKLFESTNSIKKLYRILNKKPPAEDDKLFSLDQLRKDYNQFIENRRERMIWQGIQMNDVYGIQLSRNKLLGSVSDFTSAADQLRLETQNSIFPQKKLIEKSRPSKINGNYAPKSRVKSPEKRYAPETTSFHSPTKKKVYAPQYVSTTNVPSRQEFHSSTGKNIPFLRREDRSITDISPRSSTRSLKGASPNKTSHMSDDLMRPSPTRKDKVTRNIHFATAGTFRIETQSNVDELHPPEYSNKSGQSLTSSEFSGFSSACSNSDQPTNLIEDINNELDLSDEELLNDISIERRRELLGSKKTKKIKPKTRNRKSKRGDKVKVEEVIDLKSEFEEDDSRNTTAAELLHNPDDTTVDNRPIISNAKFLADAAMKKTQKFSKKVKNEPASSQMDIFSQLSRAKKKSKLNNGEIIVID

(His)9-tagged srs2 1–998 = molecular target: T2, (His)9-tagged srs2 1–998 (S. cerevisiae, UniProt P12954 1-998)
T2 sequence: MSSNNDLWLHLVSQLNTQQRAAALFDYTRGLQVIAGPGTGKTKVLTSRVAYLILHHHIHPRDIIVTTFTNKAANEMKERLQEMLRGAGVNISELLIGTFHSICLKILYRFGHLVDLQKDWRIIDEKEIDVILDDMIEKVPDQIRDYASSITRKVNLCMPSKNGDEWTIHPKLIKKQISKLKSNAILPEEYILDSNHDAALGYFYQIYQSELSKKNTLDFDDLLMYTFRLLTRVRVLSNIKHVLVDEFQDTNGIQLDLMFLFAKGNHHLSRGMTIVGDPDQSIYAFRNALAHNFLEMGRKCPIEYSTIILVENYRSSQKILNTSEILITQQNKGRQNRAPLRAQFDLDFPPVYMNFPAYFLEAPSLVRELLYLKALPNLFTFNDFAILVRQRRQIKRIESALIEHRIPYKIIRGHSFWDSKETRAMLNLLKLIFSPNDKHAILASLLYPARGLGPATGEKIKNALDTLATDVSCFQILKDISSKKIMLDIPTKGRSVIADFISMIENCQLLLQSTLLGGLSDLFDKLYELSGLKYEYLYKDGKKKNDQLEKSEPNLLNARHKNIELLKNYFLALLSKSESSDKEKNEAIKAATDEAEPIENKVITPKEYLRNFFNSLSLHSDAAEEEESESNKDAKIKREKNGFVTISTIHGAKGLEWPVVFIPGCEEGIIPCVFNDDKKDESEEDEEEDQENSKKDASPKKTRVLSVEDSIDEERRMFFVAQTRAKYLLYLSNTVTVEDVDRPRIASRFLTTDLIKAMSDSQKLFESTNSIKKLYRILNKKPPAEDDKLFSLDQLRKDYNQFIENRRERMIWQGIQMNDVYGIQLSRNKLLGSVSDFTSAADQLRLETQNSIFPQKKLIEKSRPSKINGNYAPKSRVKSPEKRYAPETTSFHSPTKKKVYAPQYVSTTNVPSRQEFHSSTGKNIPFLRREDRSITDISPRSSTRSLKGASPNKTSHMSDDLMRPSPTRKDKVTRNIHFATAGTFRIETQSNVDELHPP

(His)9-tagged srs2 1–910 = molecular target: T3, (His)9-tagged srs2 1–910 (S. cerevisiae, UniProt P12954 1-910)
T3 sequence: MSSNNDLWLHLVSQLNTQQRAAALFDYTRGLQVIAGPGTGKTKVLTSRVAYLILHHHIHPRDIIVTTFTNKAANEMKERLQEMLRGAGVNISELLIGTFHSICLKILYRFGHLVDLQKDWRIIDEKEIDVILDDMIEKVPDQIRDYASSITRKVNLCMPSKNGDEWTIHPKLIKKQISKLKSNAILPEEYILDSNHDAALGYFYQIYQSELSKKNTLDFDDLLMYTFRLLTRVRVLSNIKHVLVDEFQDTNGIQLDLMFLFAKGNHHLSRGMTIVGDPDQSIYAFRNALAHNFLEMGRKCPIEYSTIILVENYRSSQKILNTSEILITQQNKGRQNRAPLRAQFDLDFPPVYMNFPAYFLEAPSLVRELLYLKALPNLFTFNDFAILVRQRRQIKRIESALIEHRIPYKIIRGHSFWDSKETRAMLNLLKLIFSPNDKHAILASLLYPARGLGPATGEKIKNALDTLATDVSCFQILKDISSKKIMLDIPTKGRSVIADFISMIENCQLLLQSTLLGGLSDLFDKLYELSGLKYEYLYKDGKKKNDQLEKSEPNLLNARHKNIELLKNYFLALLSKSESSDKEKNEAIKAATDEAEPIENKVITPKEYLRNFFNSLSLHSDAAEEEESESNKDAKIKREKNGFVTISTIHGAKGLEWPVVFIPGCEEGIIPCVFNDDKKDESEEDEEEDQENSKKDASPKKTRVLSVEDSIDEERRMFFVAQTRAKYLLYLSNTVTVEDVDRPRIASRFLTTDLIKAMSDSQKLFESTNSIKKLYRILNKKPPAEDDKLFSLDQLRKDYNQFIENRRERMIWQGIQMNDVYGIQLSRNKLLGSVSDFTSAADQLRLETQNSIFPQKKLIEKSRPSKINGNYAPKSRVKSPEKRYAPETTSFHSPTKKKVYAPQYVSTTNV

(His)9-tagged srs2 1–890 = molecular target: T4, (His)9-tagged srs2 1–890 (S. cerevisiae, UniProt P12954 1-890)
T4 sequence: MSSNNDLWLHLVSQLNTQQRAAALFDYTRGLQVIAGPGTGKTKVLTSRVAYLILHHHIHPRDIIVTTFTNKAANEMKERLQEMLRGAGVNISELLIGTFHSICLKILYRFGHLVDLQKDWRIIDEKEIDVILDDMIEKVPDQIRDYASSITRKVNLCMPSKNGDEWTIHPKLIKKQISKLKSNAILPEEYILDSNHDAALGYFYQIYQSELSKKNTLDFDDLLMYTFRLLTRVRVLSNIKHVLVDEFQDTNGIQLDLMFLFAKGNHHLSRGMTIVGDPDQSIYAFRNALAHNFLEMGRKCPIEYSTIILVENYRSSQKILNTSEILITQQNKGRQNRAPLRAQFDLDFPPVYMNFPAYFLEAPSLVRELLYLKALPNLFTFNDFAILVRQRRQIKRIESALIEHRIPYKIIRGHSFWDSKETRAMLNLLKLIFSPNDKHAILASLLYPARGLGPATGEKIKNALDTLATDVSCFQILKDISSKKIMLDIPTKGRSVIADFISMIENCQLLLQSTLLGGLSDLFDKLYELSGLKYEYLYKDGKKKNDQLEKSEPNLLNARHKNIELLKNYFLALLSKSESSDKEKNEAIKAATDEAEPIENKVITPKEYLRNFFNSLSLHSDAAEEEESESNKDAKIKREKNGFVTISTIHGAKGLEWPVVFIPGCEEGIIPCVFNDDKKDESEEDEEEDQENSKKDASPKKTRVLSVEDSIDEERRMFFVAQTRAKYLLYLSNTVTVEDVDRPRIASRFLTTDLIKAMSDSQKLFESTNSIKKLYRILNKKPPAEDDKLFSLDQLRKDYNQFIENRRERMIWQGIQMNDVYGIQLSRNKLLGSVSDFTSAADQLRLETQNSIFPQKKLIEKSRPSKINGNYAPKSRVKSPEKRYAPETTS

Measured: binding result

B1: Rad51 (natural protein)
chain: MSQVQEQHISESQLQYGNGSLMSTVPADLSQSVVDGNGNGSSEDIEATNGSGDGGGLQEQAEAQGEMEDEAYDEAALGSFVPIEKLQVNGITMADVKKLRESGLHTAEAVAYAPRKDLLEIKGISEAKADKLLNEAARLVPMGFVTAADFHMRRSELICLTTGSKNLDTLLGGGVETGSITELFGEFRTGKSQLCHTLAVTCQIPLDIGGGEGKCLYIDTEGTFRPVRLVSIAQRFGLDPDDALNNVAYARAYNADHQLRLLDAAAQMMSESRFSLIVVDSVMALYRTDFSGRGELSARQMHLAKFMRALQRLADQFGVAVVVTNQVVAQVDGGMAFNPDPKKPIGGNIMAHSSTTRLGFKKGKGCQRLCKVVDSPCLPEAECVFAIYEDGVGDPREEDE
binds: all assays above
